Measurements published in the supplement of paper PMC12764529.
± gives the half width of the 95% confidence interval.

Key:
[1] = folding stability dG unfold (combined trypsin and chymotrypsin); higher = more stable
Outline: (§1)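 Designed mini-proteins (under 80 residues, no cysteine) in a PA-tagged cDNA display construct were digested with trypsin and chymotrypsin. Each protease was used at 11 concentrations (threefold dilutions) plus a no-protease condition, followed by sequencing. K50 was inferred by Bayesian fitting of sequencing counts, and unfolding free energy was derived against a sequence-predicted unfolded-state K50 and a shared folded-state K50, per protease or combined. Only designs with AlphaFold2 dimer inter-PAE above 15 were kept.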

[2] = folding stability dG unfold from trypsin proteolysis; higher = more stable
Outline: as §1

[3] = folding stability dG unfold from chymotrypsin proteolysis; higher = more stable
Outline: as §1

Sequence | folding stability dG unfold [1] | folding stability dG unfold [2] | folding stability dG unfold [3]
SAGGSAGGSPAPDVTIEVKVTYDPETGALRIEVEATIPGGGKITIEYTIPPLDKIEIVGVKIESAGGSAGGS [r12_1029_TrMRF] | 3.6 ± 0.26 kcal/mol | 2.63 ± 0.15 kcal/mol | 3.83 ± 0.2 kcal/mol
SAGGSAGGSPDAPPPPVNVVVPIPESELLSEEELPGGTTLRTYRLPDGTEITVRTAPDGRVTVDSAGGSAGG [r6_119_JUSTAS] | 3.57 ± 0.13 kcal/mol | 3.01 ± 0.16 kcal/mol | 3.86 ± 0.059 kcal/mol
SAGGSAGGSPEVLASFPLKDGSVVIVARRPGEIRVLVVKSSDLENIPELKDIKVFPTFGDDPVSAGGSAGGS [r12_343_TrMRF] | 1.19 ± 0.05 kcal/mol | 1.03 ± 0.041 kcal/mol | 1.18 ± 0.077 kcal/mol
SAGGSAGGSPGNYIIQIEIKFPGRKHTWHVDSPEEALEQLKNDLEKQHPNAPITDVEIEVFPLSAGGSAGGS [r12_429_TrROS] | 0.556 ± 0.46 kcal/mol | 0.791 ± 0.2 kcal/mol | 0.155 ± 0.94 kcal/mol
SAGGSAGGSPIEEIVAELKVPPGTTVKFPDGSTITLNSREDLLKLAKEGYPPEKLKDITVEAVSAGGSAGGS [r12_430_JUSTAS] | 0.856 ± 0.089 kcal/mol | 0.308 ± 0.071 kcal/mol | 1.08 ± 0.059 kcal/mol
SAGGSAGGSPKPIPIKIDEVWPNPDNGKDYIVKIEFPDGKKHTFTSPEDIRKLPGFDVEVYELSAGGSAGGS [r20_192_TrROS] | 0.621 ± 0.2 kcal/mol | 0.123 ± 0.058 kcal/mol | 0.783 ± 0.27 kcal/mol
SAGGSAGGSPKVTTSTSSSVLGNGRLESTVSNPDLGVTTLTLTDPESDVVTTFTETAGSTTPAASAGGSAGG [r6_757_JUSTAS] | 0.606 ± 0.031 kcal/mol | 0.132 ± 0.025 kcal/mol | 0.815 ± 0.037 kcal/mol
SAGGSAGGSPNPKNVKIYLVALDPDKPEVVAEASFNITVDTEEELEAILKELVPLFPGAKVFASAGGSAGGS [r12_1043_TrMRF] | 1.13 ± 0.1 kcal/mol | 0.853 ± 0.086 kcal/mol | 1.25 ± 0.12 kcal/mol
SAGGSAGGSPNTVPIPIRVEWYDPKDGEPKDEHPFNINFKTEEEAEDIIDNIAPDHPGMKIEISAGGSAGGS [r12_1043_TrROS] | 0.0133 ± 0.14 kcal/mol | 0.233 ± 0.096 kcal/mol | -0.322 ± 0.11 kcal/mol
SAGGSAGGSPPDFVIQPEVEHTRDPENGKHEATVKIEIMDGRPIEIPFKSPEDAEDAIKELINSAGGSAGGS [r12_389_TrROS] | 0.829 ± 0.13 kcal/mol | 1.14 ± 0.079 kcal/mol | 0.382 ± 0.098 kcal/mol
SAGGSAGGSPPNKEVYIRIKIEYDGPNGQPIMEFWIPADEITPSFIEELMNRGGIKVDIELIPSAGGSAGGS [r12_398_TrROS] | 2.84 ± 0.1 kcal/mol | 2.66 ± 0.085 kcal/mol | 2.99 ± 0.032 kcal/mol
SAGGSAGGSPRVLEIRRYPLPDGGYLLEVRFEKETLFIPVPENVPPHSLEEIEIPLLLGEKPESAGGSAGGS [r12_673_TrMRF] | 1.6 ± 0.044 kcal/mol | 1.49 ± 0.022 kcal/mol | 1.6 ± 0.027 kcal/mol
SAGGSAGGSPSEEARKKGGLTLTITLRYPDGSTVTITYPVSTPLTIPEEFAKNPPKIESIELSSAGGSAGGS [r12_161_JUSTAS] | 1.34 ± 0.073 kcal/mol | 1.23 ± 0.019 kcal/mol | 1.38 ± 0.051 kcal/mol
SAGGSAGGSPSVLDQVKRMIQDRIQERFGLPPGYTVQVTIDVEIDDGGIRIKKIKAEIQPPDNSAGGSAGGS [r12_481_TrROS] | 2.37 ± 0.17 kcal/mol | 2.12 ± 0.095 kcal/mol | 2.42 ± 0.054 kcal/mol
SAGGSAGGSPTYTIDVEKYPDGYYFLKIWMPGHNRKIEHPIPPDNPDKIDEITITPNGKIKIDSAGGSAGGS [r20_11_TrROS] | 0.263 ± 0.17 kcal/mol | 0.161 ± 0.13 kcal/mol | 0.309 ± 0.24 kcal/mol
SAGGSAGGSPVFESPEQAKAFLDNVPADSTVLIAVKNPETGEWQLFVVKVPPKRPVGYPGDKDSAGGSAGGS [r12_393_TrMRF] | 1.56 ± 0.085 kcal/mol | 1.08 ± 0.065 kcal/mol | 1.79 ± 0.072 kcal/mol
SAGGSAGGSPVIAVRVKRIEVTYDAATGRLTVRIEVEVDGKTYTITVPPGAEIKPGDTLLIEPSAGGSAGGS [r20_49_TrROS_Hall] | 4.375 ± 0.041 kcal/mol | 4.23 ± 0.098 kcal/mol | 4.434 ± 0.038 kcal/mol
SAGGSAGGSPVVTVENVTRPSDYYTYTFKLPDGTVITLDAKSEEEAREKAKELGLENLNFKTEESAGGSAGG [r6_601_JUSTAS] | 3.8 ± 0.14 kcal/mol | 3.15 ± 0.19 kcal/mol | 3.88 ± 0.13 kcal/mol
SAGGSAGGSPYTIMYPIPGDTVEEVKDIAKEIMEHFPNFKITVSVEPPKDGQYWVTIELEMPDSAGGSAGGS [r12_425_TrROS] | 2.09 ± 0.15 kcal/mol | 1.87 ± 0.11 kcal/mol | 2.23 ± 0.049 kcal/mol
SAGGSAGGSRIIFRIPPEFRENMPIEEIVEEFLPPGMPVEIEWERTPDPWYVTVDIEIPPGQLSAGGSAGGS [r12_716_TrROS] | 0.334 ± 0.27 kcal/mol | 0.364 ± 0.16 kcal/mol | 0.325 ± 0.33 kcal/mol
SAGGSAGGSRKTILFRFPDGMMIKISLEENPNGNKRVRVTVYNPDNGKKRRMPADELPPNAKISAGGSAGGS [r12_797_TrROS] | 2.64 ± 0.15 kcal/mol | 1.14 ± 0.079 kcal/mol | 3.13 ± 0.09 kcal/mol
